Results from article PMC12121223.

Target: extracellular region of FGFR1 fused to the Fc fragment of human IgG1 (UniProt P11362)
UniProt P11362, sequence (P11362 22-376): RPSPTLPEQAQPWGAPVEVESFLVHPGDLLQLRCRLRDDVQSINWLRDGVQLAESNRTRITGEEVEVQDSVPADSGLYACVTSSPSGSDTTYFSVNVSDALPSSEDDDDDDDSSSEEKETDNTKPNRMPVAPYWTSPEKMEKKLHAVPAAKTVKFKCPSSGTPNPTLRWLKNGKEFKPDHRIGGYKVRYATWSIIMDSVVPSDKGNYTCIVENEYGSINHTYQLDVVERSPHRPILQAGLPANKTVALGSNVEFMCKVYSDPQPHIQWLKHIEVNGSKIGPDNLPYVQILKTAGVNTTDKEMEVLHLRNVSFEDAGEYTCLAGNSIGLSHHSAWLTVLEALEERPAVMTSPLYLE

cellular uptake of fluorescently labelled FGF1WT into U2OS-R1 cells in the presence of heparin, quantitative confocal microscopy (normalized RSI): 25.2%
Substance: truncated wild-type FGF1 (Met-Ala-FGF1 21-154) (ligand)
